Reference: the supplement of paper PMC10724198
± gives the standard deviation of the averaged measurements.

System: Saccharomyces cerevisiae
Assay: protein stability index of tFT-peptide fusion (C-terminal peptide) (PSI (0-1 scale)); higher = more stable (slower turnover)
Conditions: genetic background: wild type; temperature: 30 C
Method: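 Multiplexed protein stability (MPS) profiling in S. cerevisiae. Random 12-aa peptides (tFT-X12 library) are fused to the C-terminus of a sfGFP-mCherry tandem fluorescent timer, after mCherry and a GGGS linker. Cells are FACS-sorted into 8 mCherry/sfGFP bins and deep-sequenced. The protein stability index (PSI) is the read-weighted bin average, scaled from 0 (unstable) to 1 (stable). Only peptides with >10 reads are reported; cells were grown at 30 °C in SC-His with glucose.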
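Further: PSI is a weighted mean of sequencing reads over stability bins, variants kept only with over 10 reads, mCherry proximal and sfGFP distal, peptide attached via GGGS linker.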

| Sequence | protein stability index |
| --- | --- |
| FWSCCCTLLFCV | 0.5974 ± 0.002 |
| FYLMSDTNLPAL | 0.664 ± 0.021 |
| FYSRSVTLEVLH | 0.605 ± 0.023 |
| FYWFPYYFSHLH | 0.602 ± 0.048 |
| GAAGGRGRGTAW | 0.619 ± 0.15 |
| GACSIVFYKVKR | 0.653 ± 0.048 |
| GAGGSAGARSAE | 0.702 ± 0.03 |
| GAGRGGGRGRRW | 0.661 ± 0.031 |
| GAGRVRAPGRWP | 0.6965 ± 0.0035 |
| GAGSGTRQPKPR | 0.617 ± 0.0076 |
| GAGSRRRNWGGW | 0.711 ± 0.0081 |
| GAILQVEAITHN | 0.657 ± 0.068 |
| GALVEGVFGHVR | 0.658 ± 0.0066 |
| GAPPPAFPISSP | 0.648 ± 0.05 |
| GAQVGVRFLFSI | 0.55 ± 0.011 |
| GARHTALCCPMG | 0.623 ± 0.041 |
| GARRGVSERSPA | 0.647 ± 0.041 |
| GASGGNRTGRRS | 0.681 ± 0.022 |
| GASGWGGGGRGR | 0.767 ± 0.14 |
| GATPRTAGRRPG | 0.688 ± 0.038 |
| GAVCRRVWVGSW | 0.674 ± 0.0089 |
| GAVRAVAGGGAR | 0.711 ± 0.067 |
| GAVVGGRCFCRR | 0.715 ± 0.012 |
| GCARLPALCCMF | 0.694 ± 0.039 |
| GCCCVMNQLRRR | 0.777 ± 0.088 |

| Sequence | protein stability index |
| --- | --- |
| GCELVISCAHPV | 0.695 ± 0.063 |
| GCFRGLYVVRGG | 0.647 ± 0.039 |
| GCFVGCDHWGVV | 0.67 ± 0.028 |
| GCGEGNVRPCEL | 0.6347 ± 0.0011 |
| GCGFRGVYSCWV | 0.678 ± 0.078 |
| GCGGGGGAWKGV | 0.751 ± 0.056 |
| GCGMCDPRCEHY | 0.743 ± 0.083 |
| GCGSWAWWCGRG | 0.894 ± 0.08 |
| GCGVGVGASVGR | 0.636 ± 0.025 |
| GCLHVVGGVCLG | 0.69 ± 0.048 |
| GCLPSGTPAWFG | 0.751 ± 0.052 |
| GCMRCTYKGKVK | 0.713 ± 0.059 |
| GCSVSRIRSAYV | 0.672 ± 0.0089 |
| GCVGGWLGEGIG | 0.627 ± 0.035 |
| GCVSAVSKCFFL | 0.751 ± 0.1 |
| GDARLAIWSLVT | 0.512 ± 0.0098 |
| GDIILSFFNFSK | 0.666 ± 0.024 |
| GDLVRNARSLII | 0.72 ± 0.014 |
| GDRYFGTPAPSH | 0.757 ± 0.021 |
| GDYETPSTRSPM | 0.67 ± 0.023 |
| GEAVGRWSECRS | 0.664 ± 0.0091 |
| GEDADLVPILLG | 0.707 ± 0.044 |
| GEFSINDGSGWT | 0.7106 ± 0.0045 |
| GEGAWNRKKPGD | 0.632 ± 0.067 |
| GEGRRQIKEEHV | 0.6842 ± 0.0042 |

| Sequence | protein stability index |
| --- | --- |
| GEGRRWGSFWVG | 0.6701 ± 0.0039 |
| GEGVPVWNQCVE | 0.658 ± 0.0091 |
| GEGVVRGDGVRG | 0.656 ± 0.041 |
| GEIMGEVARREK | 0.66 ± 0.048 |
| GELGIECREVVG | 0.704 ± 0.087 |
| GELVVRVGEWGC | 0.7051 ± 0.0027 |
| GEQAGLSLTAGP | 0.678 ± 0.03 |
| GERRREKRKNSG | 0.726 ± 0.046 |
| GESTNVYTTHWI | 0.736 ± 0.011 |
| GESWCGLVWPGG | 0.675 ± 0.013 |
| GEVILERKRRKI | 0.629 ± 0.057 |
| GEVKRSLGQVRG | 0.695 ± 0.007 |
| GEWRHVFSVTRC | 0.7475 ± 0.0025 |
| GEWVNLGFGFLF | 0.781 ± 0.11 |
| GEYYKRKMNGSK | 0.718 ± 0.11 |
| GFARICVLLPSS | 0.727 ± 0.039 |
| GFEIFYLVLGIP | 0.52979 ± 0.00023 |
| GFETGLGKGAGW | 0.714 ± 0.019 |
| GFGCVGSIFVIY | 0.66 ± 0.018 |
| GFGFMGLRFGVD | 0.762 ± 0.13 |
| GFGPPGPCSYVR | 0.691 ± 0.042 |
| GFGSGVVAGSSL | 0.682 ± 0.044 |
| GFISFASRISTS | 0.722 ± 0.032 |
| GFLEAIMRFCGL | 0.719 ± 0.0081 |
| GFLVNNCLGFLW | 0.782 ± 0.051 |

| Sequence | protein stability index |
| --- | --- |
| GFLVPVALCPVV | 0.557 ± 0.03 |
| GFPGLFCGPVRF | 0.742 ± 0.054 |
| GFPGSYSKVLCL | 0.6619 ± 0.0032 |
| GFRPVVAGIGHS | 0.6632 ± 0.0061 |
| GFSAGVSHSGAG | 0.661 ± 0.017 |
| GFSRELTLARLI | 0.613 ± 0.017 |
| GFTGGGRRWLGG | 0.713 ± 0.056 |
| GFTGWGRRWLGG | 0.713 ± 0.059 |
| GFVGVGEEEIFG | 0.7217 ± 0.006 |
| GFVRYPYFAFGR | 0.687 ± 0.093 |
| GGAGGNLAPGRG | 0.638 ± 0.026 |
| GGALTADTTIAP | 0.662 ± 0.087 |
| GGAMLMLAVEGV | 0.609 ± 0.044 |
| GGAWRGWCVGVR | 0.644 ± 0.1 |
| GGAYRCFSIQRS | 0.687 ± 0.0078 |
| GGCAGGGGVVVR | 0.6851 ± 0.0046 |
| GGCAGRGGVVVR | 0.6904 ± 0.0029 |
| GGCEWWSGGRGG | 0.733 ± 0.026 |
| GGCGGVCGACVV | 0.695 ± 0.011 |
| GGCGLGGVLEVG | 0.676 ± 0.017 |
| GGCGNVGVGVSV | 0.694 ± 0.012 |
| GGCGYGELWAWA | 0.7908 ± 0.0038 |
| GGCPPFGVSSVG | 0.708 ± 0.013 |
| GGCRGDGMMGVG | 0.552 ± 0.072 |
| GGCSCLGVGCLS | 0.675 ± 0.045 |

| Sequence | protein stability index |
| --- | --- |
| GGCVWWSWGRGG | 0.652 ± 0.016 |
| GGDARGRGGMPD | 0.712 ± 0.12 |
| GGDIRGGVRHIG | 0.725 ± 0.026 |
| GGEGRGRVWEIS | 0.686 ± 0.068 |
| GGELRPKGVRGV | 0.656 ± 0.046 |
| GGENGLGGLGVG | 0.626 ± 0.14 |
| GGFESRVVGGVG | 0.526 ± 0.034 |
| GGFRDIAYCLVP | 0.613 ± 0.0072 |
| GGGARWAGLGEG | 0.687 ± 0.06 |
| GGGCERGVGLLG | 0.626 ± 0.066 |
| GGGCGLFVFLSL | 0.63 ± 0.058 |
| GGGCQVSPPSLL | 0.7076 ± 0.0024 |
| GGGCVGGGSSCA | 0.701 ± 0.12 |
| GGGGGCGRAGGG | 0.714 ± 0.053 |
| GGGGGCLSGRLG | 0.654 ± 0.028 |
| GGGGGCVGRLWG | 0.742 ± 0.026 |
| GGGGGEWCLVRL | 0.688 ± 0.027 |
| GGGGGGGGYLGA | 0.715 ± 0.027 |
| GGGGGGGWGAVG | 0.688 ± 0.0076 |
| GGGGGGLLDVGV | 0.685 ± 0.027 |
| GGGGGLVVFGWK | 0.687 ± 0.007 |
| GGGGGVRLVVSR | 0.668 ± 0.027 |
| GGGGGVSGGGVF | 0.672 ± 0.063 |
| GGGGRGLLDVGV | 0.689 ± 0.031 |
| GGGGRGVGRGWG | 0.675 ± 0.0046 |

| Sequence | protein stability index |
| --- | --- |
| GGGGSFLVGLGL | 0.647 ± 0.056 |
| GGGGSRWAGPRC | 0.636 ± 0.031 |
| GGGGVVRAWGLR | 0.738 ± 0.043 |
| GGGLAPADQVGV | 0.729 ± 0.043 |
| GGGLGAGWGVWG | 0.68 ± 0.035 |
| GGGLGGGGFRGG | 0.749 ± 0.033 |
| GGGLGGLGCFMV | 0.698 ± 0.036 |
| GGGLSWARRSPS | 0.683 ± 0.069 |
| GGGLVLSGWCVW | 0.751 ± 0.026 |
| GGGREGEIGGGG | 0.5705 ± 0.0013 |
| GGGRGGFRVVVG | 0.744 ± 0.042 |
| GGGRGGSTPALG | 0.667 ± 0.03 |
| GGGRGWAGENTR | 0.704 ± 0.028 |
| GGGRPGLRALSY | 0.747 ± 0.034 |
| GGGSGGEAVRVW | 0.645 ± 0.026 |
| GGGSGGRRLVRF | 0.726 ± 0.023 |
| GGGSHASERAAR | 0.723 ± 0.022 |
| GGGSIAPRSVGT | 0.7649 ± 0.0021 |
| GGGSVGMWGWWV | 0.625 ± 0.075 |
| GGGTGALGTVRW | 0.765 ± 0.055 |
| GGGVGLRGGWDG | 0.71 ± 0.044 |
| GGGVRGGVLVLG | 0.51 ± 0.03 |
| GGGVSSEWSGCR | 0.665 ± 0.0087 |
| GGGVWGVGRGIL | 0.6 ± 0.013 |
| GGGWGGGGSSCA | 0.659 ± 0.055 |

| Sequence | protein stability index |
| --- | --- |
| GGGWGSMDLRDR | 0.712 ± 0.016 |
| GGGWSRGGVGDR | 0.672 ± 0.027 |
| GGGWSRRGVGDR | 0.673 ± 0.028 |
| GGIRGEGEVGKR | 0.69 ± 0.021 |
| GGKLNRAGRATG | 0.697 ± 0.088 |
| GGLACTLAAFYL | 0.733 ± 0.047 |
| GGLGFVGGVRVQ | 0.6705 ± 0.00086 |
| GGLICRHGVGRG | 0.705 ± 0.024 |
| GGLRRMGVRPCA | 0.715 ± 0.21 |
| GGLSGGMRIEDS | 0.686 ± 0.028 |
| GGLVTSGGWRCA | 0.71 ± 0.065 |
| GGLWLCFVPEVM | 0.563 ± 0.0077 |
| GGMAWGPVCGAG | 0.6906 ± 0.0018 |
| GGNRRIKEKSRL | 0.785 ± 0.016 |
| GGPESMDILRFR | 0.62 ± 0.069 |
| GGPPSPPFFDAV | 0.741 ± 0.081 |
| GGPTCSSSCDPV | 0.67 ± 0.038 |
| GGRCGEGLVREG | 0.702 ± 0.021 |
| GGRGGEGRGGSG | 0.658 ± 0.018 |
| GGRGPSAVGSGV | 0.74 ± 0.085 |
| GGRGRGMWGIFG | 0.681 ± 0.0096 |
| GGRGRWEMVGRT | 0.7 ± 0.021 |
| GGRGSGLVGCSL | 0.6 ± 0.065 |
| GGRGVVVVQGAG | 0.6978 ± 0.0013 |
| GGRGWRSGTEGE | 0.675 ± 0.013 |

| Sequence | protein stability index |
| --- | --- |
| GGRGWWRGTGSG | 0.719 ± 0.056 |
| GGRIRLLTYFGR | 0.601 ± 0.042 |
| GGRLGRGVVRGW | 0.704 ± 0.011 |
| GGRRVWAGRTGV | 0.734 ± 0.077 |
| GGRSGGWCGCWG | 0.711 ± 0.032 |
| GGRVAGSMGGGG | 0.719 ± 0.056 |
| GGRVLKFLLGRL | 0.668 ± 0.15 |
| GGRVWGAVGAGP | 0.627 ± 0.082 |
| GGSALGCLCRWM | 0.823 ± 0.029 |
| GGSEEGGKAAKT | 0.652 ± 0.015 |
| GGSGGAVEERGG | 0.6573 ± 0.0013 |
| GGSRGVGASEEC | 0.6515 ± 0.005 |
| GGSRRGRRLLTQ | 0.699 ± 0.037 |
| GGTGWVGEMGGR | 0.796 ± 0.069 |
| GGTHCRVCCVLF | 0.659 ± 0.02 |
| GGVATQARQTCN | 0.742 ± 0.17 |
| GGVFTHLEKAVD | 0.649 ± 0.046 |
| GGVGAFAARRFA | 0.634 ± 0.012 |
| GGVGCLGVFSVG | 0.7 ± 0.013 |
| GGVGGAGGRNRG | 0.674 ± 0.014 |
| GGVGGCARVWPR | 0.654 ± 0.061 |
